Data: patent EP3636320A1 (Numab Therapeutics AG, dated 2020)

Biological target: human CD137 expressed on Jurkat cells (human, UniProt Q07011 24-255)
Experiment: cell-based or functional assay

B1: PRO1480 (other)
chain: DIQMTQSPASLSASVGDRVTITCQASQSIGTYLAWYQQKPGKPPKLLIYRAFILASGVPSRFSGSGSGTDFTLTISSLQPEDFATYYCQSNFYSDSTTIGPNAFGTGTKVTVLGGGGGSEVQLVESGGGLVQPGGSLRLSCAASGFSFSANYYPCWVRQAPGKGLEWIGCIYGGSSDITYDANWTKGRFTISRDNSKNTVYLQMNSLRAEDTAVYYCARSAWYSGWGGDLWGQGTLVTVSSGGGGSGGGGSGGGGSGGGGSIQMTQSPSSLSASVGDRVTITCQASQSISNRLAWYQQKPGKAPKLLIYSASTLASGVPSRFSGSGSGTDFTLTISSLQPEDFATYYCQSTYYGNDGNAFGTGTKVTVLGGGGGSEVQLVESGGGLVQPGGSLRLSCAASGFSFNSDYWIYWVRQAPGKGLEWIASIYGGSSGNTQYASWAQGRFTISRDNSKNTVYLQMNSLRAEDTAVYFCARGYVDYGGATDLWGQGTLVTVSSGGGGSGGGGSIQMTQSPSSLSASVGDRVTITCQSSESVYSNNQLSWYQQKPGQPPKLLIYDASDLASGVPSRFSGSGSGTDFTLTISSLQPEDFATYYCAGGFSSSSDTAFGGGTKLTVLGGGGGSGGGGSGGGGSGGGGSEVQLVESGGGLVQPGGSLRLSCAASGFSLSSNAMGWVRQAPGKGLEYIGIISVGGFTYYASWAKGRFTISRDNSKNTVYLQMNSLRAEDTATYFCARDRHGGDSSGAFYLWGQGTLVTVSS
  IC50 (ng/ml), activation of NF-kB reporter gene, HCC827 +IFNg, 6 h, with HSA: 6.44 ng/mL
  IC50 (ng/ml), activation of NF-kB reporter gene, HCC827 +IFNg, 24 h, with HSA: 4.67 ng/mL

B2: PRO1481 (other)
chain: DIQMTQSPASLSASVGDRVTITCQASQSIGTYLAWYQQKPGKPPKLLIYRAFILASGVPSRFSGSGSGTDFTLTISSLQPEDFATYYCQSNFYSDSTTIGPNAFGTGTKVTVLGGGGGSESQLVESGGGLVQPGGSLRLSCAASGFSFSANYYPCWVRQAPGKGLEWIGCIYGGSSDITYDANWTKGRFTISRDNSKNTVYLQMNSLRAEDTAVYFCARSAWYSGWGGDLWGPGTLVTVSSGGGGSGGGGSGGGGSGGGGSFQLTQSPSSLSASVGDRVTITCQASQSISNRLAWYQQKPGKPPKLLIYSASTLASGVPSRFSGSGSGTDFTLTISSLQPEDFATYYCQSTYYGNDGNAFGTGTKVTVLGGGGGSEVQLVESGGGLVQPGGSLRLSCAASGFSFNSDYWIYWVRQAPGKGLEWIASIYGGSSGNTQYASWAQGRFTISRDNSKNTVYLQMNSLRAEDTAVYFCARGYVDYGGATDLWGQGTLVTVSSGGGGSGGGGSIQMTQSPSSLSASVGDRVTITCQSSESVYSNNQLSWYQQKPGQPPKLLIYDASDLASGVPSRFSGSGSGTDFTLTISSLQPEDFATYYCAGGFSSSSDTAFGGGTKLTVLGGGGGSGGGGSGGGGSGGGGSEVQLVESGGGLVQPGGSLRLSCAASGFSLSSNAMGWVRQAPGKGLEYIGIISVGGFTYYASWAKGRFTISRDNSKNTVYLQMNSLRAEDTATYFCARDRHGGDSSGAFYLWGQGTLVTVSS
  IC50 (ng/ml), activation of NF-kB reporter gene, HCC827 +IFNg, 6 h, with HSA: 7.22 ng/mL
  IC50 (ng/ml), activation of NF-kB reporter gene, HCC827 +IFNg, 24 h, with HSA: 5.51 ng/mL
